In patent US20250011448A1 (STAIDSON BIOPHARMA, published 2025):
Substitutions are numbered along the chain they refer to. Each block holds one binder with its values, some of them ahead of it.

Molecular target: T1, human TNFR2 expressed on cells (Expi293 cells stably expressing huTNFR2) (human, UniProt P20333 23-461)
T1 construct: whole, on cells; Also used here as the target of the Treg assay (native TNFR2 on human primary Treg cells); also called huTNFR2 expressed cells; Expi293-TNFR2 cells
T1 sequence (looked up): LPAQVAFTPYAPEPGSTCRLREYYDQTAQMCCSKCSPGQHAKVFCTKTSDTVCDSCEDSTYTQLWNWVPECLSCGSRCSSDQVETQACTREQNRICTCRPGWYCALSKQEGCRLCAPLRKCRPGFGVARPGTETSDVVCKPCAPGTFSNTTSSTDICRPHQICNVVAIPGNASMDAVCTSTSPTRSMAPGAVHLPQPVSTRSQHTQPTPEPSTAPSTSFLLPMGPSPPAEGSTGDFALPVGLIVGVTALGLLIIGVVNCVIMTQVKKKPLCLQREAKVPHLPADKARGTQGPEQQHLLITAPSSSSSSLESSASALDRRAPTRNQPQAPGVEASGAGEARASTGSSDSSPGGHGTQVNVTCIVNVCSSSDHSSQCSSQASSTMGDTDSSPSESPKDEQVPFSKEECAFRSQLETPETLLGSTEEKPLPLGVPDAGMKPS
Assay: flow cytometry on Expi293 cells stably expressing huTNFR2
Method: The coding sequence of huTNFR2 (Uniprot, P20333) was cloned into a lentiviral vector and the virus was packaged according to the instruction of the virus packaging kit (Lenti-X™ Packaging Single Shots, Cat #631275, Takada). The Expi293 cells were transduced with the recombinant virus and selected by puromycin. The cell line stably expressing huTNFR2 was incubated with anti-TNFR2 antibodies in PBS with 0.5% BSA, 1 mM EDTA, and 0.1% sodium azide (FACS buffer) for 30 minutes at 4° C. The cells were washed, and then incubated with 10 nM phycoerythrin (PE) conjugated anti-Human Fe Ab (Biolegend, cat #409304) for 20 minutes at 4° C. Cells were washed and then […] by flow cytometry with Attune (ThermoFisher Scientific). Data were analyzed with FlowJo software. Antibody binding is represented as median fluorescence intensity (MFI).
As shown by the results in Table 9 and FIG. 4A, the anti-TNFR2 antibodies, 51B5, 102E4, 85G8.4, 29G3, 11C1, and 15H10 bind to Expi293-TNFR2 cells dose-dependently and potently.

B2: 15H10 chimeric anti-TNFR2 antibody (antibody, V domains shown)
VH: DVQLQESGPGLVTPSQSLSLTCSVTGYSITSGYYWNWIRQFPGNKLEWMGYITYDGNNNYNPSLKSRFSITRDTSKNQFFLKLNSVTSEDTATYYCARGDYGDSAMDYWGQGTSVTVSS
VL: EIVLTQSPAITAASLGQKVTITCSASSGVNYMHWYQQKSGTSPKPWIYEISKLASGVPARFSGSGSGTSYSLTISSMEAEDAAIYYCQQWNYPLITFGAGTKVELK
notes: Chimeric: mouse variable domains with human constant regions, made as recombinant IgG1
EC50: 2.52 nM

B3: 11C1 chimeric anti-TNFR2 antibody (antibody, V domains shown)
VH: B2 VH with Q5R, F41I, N61D, S66N, F68I, K82T
VL: B2 VL with G28S, N30S, T73I, V103L
notes: as for B2
EC50: 2.04 nM

Binders with a lower EC50, results first:

EC50: 1.47 nM
B1: 85G8.4 chimeric anti-TNFR2 antibody (antibody, V domains shown)
VH: EVQLQQSGPELVKPGASVKISCKTSGYTFTDFNMDWVKQSHGKSLEWIGYINPNNGDAAYNQKFKSKATLTVDKSSNTAYMELHSLTSDDSAVYYCARWGWAFAYWGQGTLVTVSA
VL: DIVMTQSHKIMSTSVGDRVSITCKASQDVKTAVAWYQQKPGQSPKLLIYATSYRYTGVPDRFTGSGSGTDFTFTISTVQAEDLAVYYCQQHYSIPYTFGGGTKLEIK
notes: as for B2

EC50: 0.654 nM
B4: 29G3 chimeric anti-TNFR2 antibody (antibody, V domains shown)
VH: EVMLVESGGASVKPGGSLKLSCAASGFTFSNFAMSWVRQTPEKRLEWVATIRSGDNYSYYSDNVKGRFTISRDNARNTLYLQMSSLRSKDTSIYYCARNWDKVFDYWGQGTTLTVSS
VL: DIVLTQSPASLAVSLGQRATISCRASESVDSYGYSFMHWYQQKPGQPPKLLIYRASNLKSGIPARFSGSGSRTDFTLTINPVEADDVATYYCQQSNEDHTFGGGTKLEIK
notes: as for B2
